Data as given in the supplement of paper PMC11246515.
± gives the standard deviation of the averaged measurements.

Assay: total protein half-life in vivo (active degradation + dilution); higher = more stable protein
[1] = E. coli NCM3722 delta-clpP delta-lon delta-hslV, growth: N-lim chemostat, doubling time 6 h
[2] = E. coli NCM3722 delta-clpP, growth: N-lim chemostat, doubling time 6 h
[3] = E. coli NCM3722 delta-hslV, growth: N-lim chemostat, doubling time 6 h
[4] = E. coli NCM3722 delta-lon, growth: N-lim chemostat, doubling time 6 h
[5] = E. coli NCM3722 delta-smpB, growth: N-lim chemostat, doubling time 6 h
[6] = wild type E. coli NCM3722, growth: C-lim chemostat, doubling time 3 h
[7] = wild type E. coli NCM3722, growth: C-lim chemostat, doubling time 6 h
[8] = wild type E. coli NCM3722, growth: C-lim chemostat, doubling time 12 h
[9] = wild type E. coli NCM3722, growth: N-lim chemostat, doubling time 6 h
[10] = wild type E. coli NCM3722, growth: N-lim chemostat, doubling time 12 h
[11] = wild type E. coli NCM3722, growth: P-lim chemostat, doubling time 6 h
[12] = wild type E. coli NCM3722, growth: P-lim chemostat, doubling time 12 h

| Sequence | total protein half-life in vivo [1] [h] | total protein half-life in vivo [2] [h] | total protein half-life in vivo [3] [h] | total protein half-life in vivo [4] [h] | total protein half-life in vivo [5] [h] | total protein half-life in vivo [6] [h] | total protein half-life in vivo [7] [h] | total protein half-life in vivo [8] [h] | total protein half-life in vivo [9] [h] | total protein half-life in vivo [10] [h] | total protein half-life in vivo [11] [h] | total protein half-life in vivo [12] [h] |
| --- | --- | --- | --- | --- | --- | --- | --- | --- | --- | --- | --- | --- |
| MNFLAHLHLAHLAESSLSGNLLADFVRGNPEESFPPDVVAGIHMHRRIDVLTDNLPEVREAREWFRSETRRVAPITLDVMWDHFLSRHWSQLSPDFPLQEFVCYAREQVMTILPDSPPRFINLNNYLWSEQWLVRYRDMDFIQNVLNGMASRRPRLDALRDSWYDLDAHYDALETRFWQFYPRMMAQASRKAL | 5.09 ± 0.57 | 2 ± 0.55 | 2.32 | 3.5 ± 0.25 | 3.83 | 2.18 | 4.23 | 6.12 | 3.3 | 4.2 | 3.04 ± 0.068 | 3.73 ± 1.6 |
| MNFPLIANIVVFVVLLFALAQTRHKQWSLAKKVLVGLVMGVVFGLALHTIYGSDSQVLKDSVQWFNIVGNGYVQLLQMIVMPLVFASILSAVARLHNASQLGKISFLTIGTLLFTTLIAALVGVLVTNLFGLTAEGLVQGGAETARLNAIESNYVGKVSDLSVPQLVLSFIPKNPFADLTGANPTSIISVVIFAAFLGVAALKLLKDDAPKGERVLAAIDTLQSWVMKLVRLVMQLTPYGVLALMTKVVAGSNLQDIIKLGSFVVASYLGLLIMFAVHGILLGINGVSPLKYFRKVWPVLTFAFTSRSSAASIPLNVEAQTRRLGVPESIASFAASFGATIGQNGCAGLYPAMLAVMVAPTVGINPLDPMWIATLVGIVTVSSAGVAGVGGGATFAALIVLPAMGLPVTLVALLISVEPLIDMGRTALNVSGSMTAGTLTSQWLKQTDKAILDSEDDAELAHH | 5.42 ± 0.17 | 4.76 ± 0.058 | 5.07 ± 0.26 | 5 ± 0.65 | 5.38 ± 0.78 | 3.35 ± 0.46 | 6.36 ± 1.8 | 11.4 ± 2 | 4.95 ± 1.1 | 8.91 ± 0.48 | 5.29 ± 0.62 | 7.43 ± 0.75 |
| MNGKLQSSDVKNETPYNIPLLINENVISSGISLISLWHTYADEHYRVIWPRDKKKPLIANSWVAVYTVQGCGKILLKNGEQITLHGNCIIFLKPMDIHSYHCEGLVWEQYWMEFTPTSMMDIPVGQQSVIYNGEIYNQELTEVAELITSPEAIKNNLAVAFLTKIIYQWICLMYADGKKDPQRRQIEKLIATLHASLQQRWSVADMAATIPCSEAWLRRLFLRYTGKTPKEYYLDARLDLALSLLKQQGNSVGEVADTLNFFDSFHFSKAFKHKFGYAPSAVLKNTDQHPTDASPHN | 5.49 ± 0.17 |  |  |  | 1.33 ± 0.21 |  |  |  |  |  |  |  |
| MNGTIYQRIEDNAHFRELVEKRQRFATILSIIMLAVYIGFILLIAFAPGWLGTPLNPNTSVTRGIPIGVGVIVISFVLTGIYIWRANGEFDRLNNEVLHEVQAS [P0AF54] |  |  |  |  |  |  | 5.84 ± 0.1 | 8.72 ± 0.83 |  |  |  |  |
| MNHSLKPWNTFGIDHNAQHIVCAEDEQQLLNAWQYATAEGQPVLILGEGSNVLFLEDYRGTVIINRIKGIEIHDEPDAWYLHVGAGENWHRLVKYTLQEGMPGLENLALIPGCVGSSPIQNIGAYGVELQRVCAYVDSVELATGKQVRLTAKECRFGYRDSIFKHEYQDRFAIVAVGLRLPKEWQPVLTYGDLTRLDPTTVTPQQVFNAVCHMRTTKLPDPKVNGNAGSFFKNPVVSAETAKALLSQFPTAPNYPQADGSVKLAAGWLIDQCQLKGMQIGGAAVHRQQALVLINEDNAKSEDVVQLAHHVRQKVGEKFNVWLEPEVRFIGASGEVSAVETIS | 4.93 ± 1.3 | 3.45 ± 0.048 | 3.8 ± 0.13 | 3.89 ± 0.49 | 3.52 ± 0.22 | 2.93 ± 0.053 | 4.83 ± 0.63 | 9.87 ± 0.28 | 3.66 ± 0.11 | 5.41 ± 0.096 | 4.81 ± 0.36 | 8.99 ± 0.82 |
| MNIENLKTKAEADISEYITKKIIELKKKTGKEVTSIQFTAREKMTGLESYDVKINLI | 6.69 ± 0.78 | 6.7 ± 1.3 | 5.74 ± 0.34 | 6.46 ± 0.88 | 5.57 ± 0.3 | 3.24 ± 0.47 | 5.85 ± 0.45 | 10.6 ± 1.6 | 5.71 ± 0.32 | 13.6 ± 3.4 | 5.4 ± 0.96 |  |
| MNIKGKALLAGCIALAFSNMALAEDIKVAVVGAMSGPVAQYGDQEFTGAEQAVADINAKGGIKGNKLQIVKYDDACDPKQAVAVANKVVNDGIKYVIGHLCSSSTQPASDIYEDEGILMITPAATAPELTARGYQLILRTTGLDSDQGPTAAKYILEKVKPQRIAIVHDKQQYGEGLARAVQDGLKKGNANVVFFDGITAGEKDFSTLVARLKKENIDFVYYGGYHPEMGQILRQARAAGLKTQFMGPEGVANVSLSNIAGESAEGLLVTKPKNYDQVPANKPIVDAIKAKKQDPSGAFVWTTYAALQSLQAGLNQSDDPAEIAKYLKANSVDTVMGPLTWDEKGDLKGFEFGVFDWHANGTATDAK [P0AD96] | 6.22 ± 0.16 | 5.81 ± 0.64 | 6.127 ± 0.057 | 6.35 ± 0.39 | 5.96 ± 0.19 | 3.27 ± 0.18 | 6.24 ± 0.17 | 11.46 ± 0.034 | 6.02 ± 0.32 | 12.23 ± 0.02 | 5.67 ± 0.064 | 13 ± 0.45 |
| MNIKIAALTLAIASGISAQWAIAADMPASPAPTIPVKQYVTQVNADNSVTFRYFAPGAKNVSVVVGVPVPDNIHPMTKDEAGVWSWRTPILKGNLYEYFFNVDGVRSIDTGTAMTNPQRQVNSSMILVPGSYLDTRSVAHGDLIAITYHSNALQSERQMYVWTPPGYTGMGEPLPVLYFYHGFGDTGRSAIDQGRIPQIMDNLLAEGKIKPMLVVIPDTETDAKGIIPEDFVPQERRKVFYPLNAKAADRELMNDIIPLISKRFNVRKDADGRALAGLSQGGYQALVSGMNHLESFGWLATFSGVTTTTVPDEGVAARLNDPAAINQQLRNFTVVVGDKDVVTGKDIAGLKTELEQKKINFDYQEYPGLNHEMDVWRPAYAAFVQKLFK | 4.45 |  |  |  | 3.45 ± 0.76 |  |  |  |  |  |  |  |
